# According to the supplement of paper PMC10126150:
# ± gives the standard deviation of the averaged measurements.
# System: ATP
# Experiment: switch fluorescence ratio, 500 uM ATP over buffer (Cy3 cluster intensity, sum of 5 cycles each) (fold (ratio)); higher = stronger signal-on switching upon ATP binding; sequences stand for … in TCGTCGGCAGCGTCAGATGTGTATAAGAGACAGTTTTTTTTTTTTTTTTTTTTTTTTT…TC
# Conditions: aptamer strand: ATP DNA aptamer (quencher-CACCTGGGGGAGTATTGCGGAGGAAGG + anchor), 100 nM annealed; ATP concentration: 500 uM
# Summary of the method: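 Exposure to 500 uM ATP lasted 15 min at 22 °C before imaging, and a selection-buffer image was taken beforehand, for Cy3-labelled switching-strand clusters on a modified Illumina MiSeq flow-cell annealed to 100 nM quencher-labelled ATP aptamer. Five buffer/ATP cycles were run with NaOH stripping and re-annealing between them. The fluorescence ratio per cluster is summed target-cycle over summed buffer-cycle Cy3 intensity, averaged per switch-domain sequence. Clusters outside 100-1000 RFU were excluded.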
row,Sequence,switch fluorescence ratio
1,AGGCACCGGT,1.04 ± 0.0041
2,TTTATATATA,1.005 ± 0.0095
3,CCGTTTGAAA,1.01 ± 0.006
4,CGGGGGACCG,1 ± 0.02
5,GTGGTCGTGC,0.9761 ± 0.0041
6,TGGCAGGAAT,0.9766 ± 0.0014
7,GATATCATTT,1.03 ± 0.022
8,TTAATTTTAT,0.991 ± 0.015
9,ATGGGAAGGG,1.01 ± 0.015
10,CTATACTGAG,1.05 ± 0.045
11,GTTGATTTGC,1.02 ± 0.089
12,CCTCGAGGGT,1.09 ± 0.07
13,ATGGGGTTGT,0.966 ± 0.019
14,GGTATCTAGT,1.02 ± 0.032
15,GAGGGAGGTA,0.9658 ± 0.006
16,CGAAGCATTT,3.73 ± 0.14
17,TCTCCTGGCT,1.01 ± 0.014
18,ATTTTTGAAG,1.02 ± 0.044
19,TAAGGCTTCG,0.96 ± 0.039
20,TTAGATTACG,0.998 ± 0.021
21,TCGTGTATGT,1.014 ± 0.0039
22,TAAACGAAGC,1.06 ± 0.039
23,TTTTAGTTAA,1.01 ± 0.03
24,AGTTTCGGAA,1.021 ± 0.0038
25,AAAAGTGACC,1.01 ± 0.045

row,Sequence,switch fluorescence ratio
1,CTGGCGGTCC,1.028 ± 0.0066
2,TGGAGGTTTT,1.07 ± 0.045
3,TTATTGGAGC,0.981 ± 0.015
4,CTGATGGGG,0.986 ± 0.021
5,TGTAAGGACT,1.01 ± 0.038
6,TTTCTTATGA,0.971 ± 0.025
7,TGCTTACCCA,1.03 ± 0.017
8,GAGTATGTTC,0.95 ± 0.017
9,AAAGCGGACT,1.044 ± 0.0089
10,TTTGTGGTTA,1.04 ± 0.056
11,TTATGACTGT,1.015 ± 0.01
12,TCCGGGCGGA,1.01 ± 0.021
13,AGGATCTCGA,0.996 ± 0.033
14,GGGAGAGGTT,0.987 ± 0.032
15,ACCGATTTTG,0.994 ± 0.022
16,AACATTAAAT,1.1 ± 0.1
17,TTACGCAACC,2.91 ± 0.58
18,GCTAGATGGG,1.01 ± 0.034
19,AGTTTACGAT,1.037 ± 0.0099
20,GGTCCGGGTT,1.006 ± 0.01
21,TGTTTTTAGG,0.989 ± 0.023
22,TCGGGGTTAT,1.04 ± 0.083
23,AGTCCTTGGA,0.99 ± 0.069
24,ACCTTTGTTT,1.001 ± 0.0054
25,AAATAAGATT,1.02 ± 0.018

row,Sequence,switch fluorescence ratio
1,GAATGTGGGC,0.955 ± 0.028
2,GTTAAAGATT,1.001 ± 0.0083
3,CGGGTTGTCG,1.02 ± 0.05
4,AGCGCGGTAA,1 ± 0.013
5,ATGGGTATTT,1.02 ± 0.035
6,TGGCGGCCGA,0.996 ± 0.021
7,GAATTACGGG,1.02 ± 0.023
8,GTGTTTACTT,1.01 ± 0.021
9,GGTTCGTGGG,1.01 ± 0.02
10,CACATAAAAG,0.987 ± 0.027
11,AGTGAGAATC,1.036 ± 0.0046
12,TTCCTTGGTG,1.94 ± 0.89
13,GACCGTGGGG,1 ± 0.027
14,TCGAAGTTGT,1.01 ± 0.022
15,CTGGGGGCGG,0.986 ± 0.018
16,TATGGGTGCC,0.9771 ± 0.0042
17,CCTACGGAAG,2.07 ± 0.045
18,CGTAAAAATG,1.01 ± 0.024
19,TTTTAAAGCA,1.01 ± 0.03
20,TCCGGATATA,1.065 ± 0.004
21,GGCGGATCGA,0.998 ± 0.063
22,ATTAATAGTG,0.967 ± 0.028
23,AGGTTGGAGT,1.02 ± 0.04
24,TATCTCTTTT,1.01 ± 0.041
25,GTGGGAAGTG,0.975 ± 0.025

row,Sequence,switch fluorescence ratio
1,GAAATTAGTG,1.01 ± 0.039
2,ATAGTTTGGA,0.947 ± 0.017
3,CTTTCCGTTC,1.2 ± 0.092
4,ATTTATCGCA,1.011 ± 0.0041
5,CTAATGAGGG,1.02 ± 0.036
6,ATACGAACGG,1.48 ± 0.015
7,GGATTGAGGG,0.968 ± 0.021
8,AAGTAGACTG,0.996 ± 0.11
9,GTGAGGTCGG,0.968 ± 0.015
10,ATTGTAAGAT,0.994 ± 0.027
11,CAAAAGGGGG,0.9818 ± 0.005
12,TCGAAAGAGA,1.02 ± 0.025
13,AGGGCATCGG,1.021 ± 0.0044
14,TGACGAGCGG,1.04 ± 0.061
15,TTTCTGTGGG,0.986 ± 0.016
16,GGGGGGGAGC,1.01 ± 0.033
17,GGATTATCTC,1.015 ± 0.0044
18,ATAAGTTCTT,0.995 ± 0.033
19,GGGGCTCTCG,0.99 ± 0.012
20,ATTCTTTGCC,1.003 ± 0.006
21,TTGTCGCTGT,1.14 ± 0.19
22,GTGGATATTT,0.986 ± 0.015
23,CCGTTTATGA,1.1 ± 0.047
24,GTAGGGATAG,1.02 ± 0.057
25,TAAGTTAGAG,0.97 ± 0.024
